{"source": "patent CN114106160A", "about": "(ANYUAN MEDICINE SCIENCE AND TECH SHANGHAI LIMITED COMPANY, dated 2022)", "binders": {"B1": {"name": "鼠源抗体S1B-48-2 (antibody, V domains shown)", "VH": "EVQLQQSGPELEKPGASVKMSCKASGYTFTNYVMHWVKQKPGQGLEWIGYFNPYNDDAEYNEKFKGKATLTSDKSSSTAYMVLSSLTSEDSAVYYCACLRQETDYWGQGTTLTVSS", "VL": "not shown"}, "B2": {"name": "鼠源抗体S1B-64-2 (antibody, V domains shown)", "VH": "EVQLQQSGPELEKPGASVKMSCKASGYTFTNYVMHWVKQKPGQGLEWIGYFNPYNDGTKYNEKFKGKATLTSDKSSSTAYMELSSLTSEDSAVYYCACLRQRADYWGQGTTLTVSS", "VL": "not shown"}, "B3": {"name": "人源化抗体hS1B-48-2 (antibody, V domains shown)", "VH": "EVQLVQSGAEVKKPGASVKVSCKASGYTFTNYVMHWVRQAPGKGLEWIGYFNPYNDDAEYNEKFKGKATLTSDKSTSTAYMKLSSLRSEDTAVYYCASLRQETDYWGQGTTLTVSS", "VL": "DIVLTQSPSSLAVSLGERATINCRASESVDNYGFSLMNWFQQKPGKPPKLLIYEASNQGSGVPARFSGSGSGTDFTLKISRLQAEDVAVYFCHQSKEVPWTFGGGTKLEIKR"}}, "key": {"刺突S-鼠Fc融合蛋白(S-mFc) [1]": {"target": "刺突S-鼠Fc融合蛋白(S-mFc) (SARS-CoV-2; mouse, UniProt P0DTC2 14-1213)", "experiment": "flow cytometry, antibody blocks binding of S-mFc to 293T-ACE2 cells"}, "[2]": {"target": "SARS-CoV-2 S1蛋白 (ACRO Biosystems) (SARS-CoV-2, UniProt P0DTC2 16-685)", "experiment": "BLI, biotinylated SARS-CoV-2 S1 on SA sensor, antibody as analyte, 1:1 model"}, "[3]": {"target": "T1, SARS-CoV-2 S1蛋白 (ACRO Biosystems) (SARS-CoV-2, UniProt P0DTC2 16-685)"}, "刺突S-鼠Fc融合蛋白(S-mFc) [4]": {"target": "T2, 刺突S-鼠Fc融合蛋白(S-mFc) (SARS-CoV-2; mouse, UniProt P0DTC2 14-1213)", "T2 construct": "domain: S蛋白全长区段", "experiment": "flow cytometry, antibody blocks binding of S-mFc to 293T-ACE2 cells"}, "[5]": {"target": "T1, SARS-CoV-2 S1蛋白 (ACRO Biosystems)", "experiment": "BLI, biotinylated SARS-CoV-2 S1 on SA sensor, antibody as analyte, 1:1 model"}}, "note": "Where two headings read alike, the source gives them in different places.", "data": [{"binder": "B1", "values": [{"measurement": "IC50", "setting": "刺突S-鼠Fc融合蛋白(S-mFc) [1]", "value": 0.0108, "unit": "µg/mL"}, {"measurement": "Kd", "setting": "[2]", "value": 15.6, "unit": "pM"}, {"measurement": "koff", "setting": "[2]", "value": "4.27e-06", "unit": "s⁻¹"}, {"measurement": "kon", "setting": "[2]", "value": 273000, "unit": "M⁻¹ s⁻¹"}]}, {"binder": "B2", "values": [{"measurement": "Kd", "setting": "[2]", "value": 91, "unit": "pM"}, {"measurement": "koff", "setting": "[2]", "value": "4.43e-05", "unit": "s⁻¹"}, {"measurement": "kon", "setting": "[2]", "value": 487000, "unit": "M⁻¹ s⁻¹"}]}, {"binder": "B3", "values": [{"measurement": "EC50", "setting": "[3]", "value": 0.0197, "unit": "µg/mL"}, {"measurement": "IC50", "setting": "刺突S-鼠Fc融合蛋白(S-mFc) [4]", "value": 0.00582, "unit": "µg/mL"}, {"measurement": "Kd", "setting": "[5]", "value": 1.13, "unit": "pM"}, {"measurement": "koff", "setting": "[5]", "value": "9.81e-07", "unit": "s⁻¹"}, {"measurement": "kon", "setting": "[5]", "value": 867000, "unit": "M⁻¹ s⁻¹"}]}]}
